Article PMC2671838

Target: Porphyromonas gingivalis heme-binding protein HmuY, heme-bound form (holo-HmuY) (Porphyromonas gingivalis)
Experiment: crystal structure; holo-HmuY (heme-bound), sitting-drop vapor diffusion at 20°C, 26 mg/mL protein in 5 mM Tris/HCl pH 8.0, reservoir 2.4 M (NH4)2SO4, 0.1 M MES pH 6.0; tetragonal crystals, one dimer per asymmetric unit; tetramer created by a local and a crystallographic two-fold axis

Porphyromonas gingivalis heme-binding protein HmuY, heme-bound form (holo-HmuY) (natural protein)
stoichiometry N: 4
